# Laboratory results: patent US8367390B2, “Galactanase variants” (Novozymes A/S, priority 2002, dated 2013)
# Like-named read-outs stand apart in the source and are kept apart here.
# B1: HIGAL: GH Family 53 galactanase from Humicola insolens, SEQ ID NO: 2 (wild type parent) (protein, listed as Humicola insolens)
# chain: ALQYKGVDWSSVMVEERAGVRYKNVNGQEKPLEYILAENGVNMVRQRVWVNPWDGNYNLDYNIQLARRAKAAGLGLYINFHYSDTWADPAHQTTPAGWPSDINNLAWKLYNYTLDSMNRFADAGIQVDIVSIGNEITQGLLWPLGKTNNWYNIARLLHSAAWGVKDSRLNPKPKIMVHLDNGWNWDTQNWWYTNVLSQGPFEMSDFDMMGVSFYPFYSASATLDSLRRSLNNMVSRWGKEVAVVETNWPTSCPYPRYQFPADVRNVPFSAAGQTQYIQSVANVVSSVSKGVGLFYWEPAWIHNANLGSSCADNTMFTPSGQALSSLSVFHRI
# modifications: mat_peptide (1)..()
# Columns and labels:
# [1] = Degradation of MeGal4, products by HPAE-PAD; type: biochemical; conditions: for Gal2 in reaction products / Gal3 in reaction products / Gal4 in reaction products / Gal in reaction products / MeGal2 in reaction products / MeGal3 in reaction products / MeGal4 in reaction products / MeGal in reaction products: MeGal4 0.25 mg/ml, pH 6.5, 37° C.
# Method: (§1) The activity on the galacto-oligosaccharide substrates prepared as described above and on the commercially available galactobiose (Gal2, Megazyme) was studied for the four purified galactanases HIGAL, MTGAL, AAGAL and BLGAL. The buffers and temperatures used were: 25 mM sodium acetate, 0.5 mM CaCl2, 0.005% Triton X-100, pH 6.5 at 37° C. for HIGAL and MTGAL, 50 mM sodium acetate, 1 mM CaCl2, pH 4 at 30° C. for AAGAL and 50 mM Mes, 1 mM CaCl2, pH 6.5 at 30° C. for BLGAL. Enzyme concentrations used were 0.8 μg/ml for HIGAL, 0.2 microgram/ml for MTGAL, and 10 micrograms/ml for AAGAL and BLGAL. With HIGAL and MTGAL substrate concentrations were all 0.25 mg/ml, whereas 0.34 mg/ml Gal2, 0.050 mg/ml Gal3 and 0.067 mg/ml Gal4 were used for AAGAL and BLGAL. Enzyme activity in samples withdrawn after various incubation times was inactivated by heating to 95° C. for 10 min. Compositions of reaction products were analysed using HPAE-PAD (Dionex) applying a PA-100 column and a linear gradient of sodium acetate (0-0.18 M) in 0.15 M NaOH. Response factors of the individual carbohydrates were estimated from reference runs with MeGal3, MeGal4, Gal, Gal2, Gal3 and Gal4. Selected results are shown in Tables 2-8 below (the figures indicating weight percentage of glactooligosaccharides).
# [2] = Activity on galactobiose (Gal2); type: biochemical; conditions: in 24 hours; buffer, pH and temperature per enzyme
# Method: as §1
# [3] = type: biochemical; conditions: for Gal2 in reaction products / Gal3 in reaction products / Gal4 in reaction products / Gal in reaction products: Gal4 0.25 mg/ml, pH 6.5, 37° C.
# Method: as §1
# [4] = Activity on galactotriose (Gal3); type: biochemical; conditions: up to 24 hours; buffer, pH and temperature per enzyme
# Method: as §1
# [5] = Degradation of MeGal3, products by HPAE-PAD; type: biochemical; conditions: for Gal2 in reaction products / Gal3 in reaction products / Gal in reaction products / MeGal2 in reaction products / MeGal3 in reaction products / MeGal in reaction products: MeGal3 0.25 mg/ml, pH 6.5, 37° C.
# Method: as §1
molecule,measurement,setting,value
B1,Gal2 in reaction products,[1]; incubation time 0.0 hours,0.0 weight percentage
same,Gal3 in reaction products,[1]; incubation time 0.0 hours,0.0 weight percentage
same,Gal4 in reaction products,[1]; incubation time 0.0 hours,0.0 weight percentage
same,Gal in reaction products,[1]; incubation time 0.0 hours,0.0 weight percentage
same,MeGal2 in reaction products,[1]; incubation time 0.0 hours,4.7 weight percentage
same,MeGal3 in reaction products,[1]; incubation time 0.0 hours,14.8 weight percentage
same,MeGal4 in reaction products,[1]; incubation time 0.0 hours,79.0 weight percentage
same,MeGal in reaction products,[1]; incubation time 0.0 hours,1.6 weight percentage
same,Gal2 in reaction products,[1]; incubation time 0.5 hours,6.3 weight percentage
same,Gal3 in reaction products,[1]; incubation time 0.5 hours,20.6 weight percentage
same,Gal4 in reaction products,[1]; incubation time 0.5 hours,3.3 weight percentage
same,Gal in reaction products,[1]; incubation time 0.5 hours,2.3 weight percentage
same,MeGal2 in reaction products,[1]; incubation time 0.5 hours,12.6 weight percentage
same,MeGal3 in reaction products,[1]; incubation time 0.5 hours,17.2 weight percentage
same,MeGal4 in reaction products,[1]; incubation time 0.5 hours,25.5 weight percentage
same,MeGal in reaction products,[1]; incubation time 0.5 hours,12.1 weight percentage
same,Gal2 in reaction products,[1]; incubation time 2.0 hours,5.0 weight percentage
same,Gal3 in reaction products,[1]; incubation time 2.0 hours,16.0 weight percentage
same,Gal4 in reaction products,[1]; incubation time 2.0 hours,3.2 weight percentage
same,Gal in reaction products,[1]; incubation time 2.0 hours,1.6 weight percentage
same,MeGal2 in reaction products,[1]; incubation time 2.0 hours,13.2 weight percentage
same,MeGal3 in reaction products,[1]; incubation time 2.0 hours,18.4 weight percentage
same,MeGal4 in reaction products,[1]; incubation time 2.0 hours,32.1 weight percentage
same,MeGal in reaction products,[1]; incubation time 2.0 hours,10.5 weight percentage
same,Gal2 in reaction products,[1]; incubation time 5.0 hours,13.8 weight percentage
same,Gal3 in reaction products,[1]; incubation time 5.0 hours,19.7 weight percentage
same,Gal4 in reaction products,[1]; incubation time 5.0 hours,3.2 weight percentage
same,Gal in reaction products,[1]; incubation time 5.0 hours,7.4 weight percentage
same,MeGal2 in reaction products,[1]; incubation time 5.0 hours,16.1 weight percentage
same,MeGal3 in reaction products,[1]; incubation time 5.0 hours,15.5 weight percentage
same,MeGal4 in reaction products,[1]; incubation time 5.0 hours,7.6 weight percentage
same,MeGal in reaction products,[1]; incubation time 5.0 hours,16.6 weight percentage
same,Gal2 in reaction products,[1]; incubation time 24.0 hours,25.3 weight percentage
same,Gal3 in reaction products,[1]; incubation time 24.0 hours,9.1 weight percentage
same,Gal4 in reaction products,[1]; incubation time 24.0 hours,1.7 weight percentage
same,Gal in reaction products,[1]; incubation time 24.0 hours,26.4 weight percentage
same,MeGal2 in reaction products,[1]; incubation time 24.0 hours,13.4 weight percentage
same,MeGal3 in reaction products,[1]; incubation time 24.0 hours,5.0 weight percentage
same,MeGal4 in reaction products,[1]; incubation time 24.0 hours,0.0 weight percentage
same,MeGal in reaction products,[1]; incubation time 24.0 hours,19.1 weight percentage
same,Products from MeGal4,"[1]; in words, buffer, pH and temperature per enzyme","initial release mainly of MeGal, MeGal2 and Gal3 and some Gal2 but little Gal"
same,Activity on Gal2,[2],"Neither of the enzymes HIGAL, MTGAL, AAGAL or BLGAL had any detectable activity"
same,Products of Gal4 (galactotetraose) degradation,[3],"mainly to Gal and Gal2, whereas Gal3 did not accumulate"
same,Gal2 in reaction products,[3]; incubation time 0.0 hours,0.0 weight percentage
same,Gal3 in reaction products,[3]; incubation time 0.0 hours,42.0 weight percentage
same,Gal4 in reaction products,[3]; incubation time 0.0 hours,58.0 weight percentage
same,Gal in reaction products,[3]; incubation time 0.0 hours,0.0 weight percentage
same,Gal2 in reaction products,[3]; incubation time 0.5 hours,8.1 weight percentage
same,Gal3 in reaction products,[3]; incubation time 0.5 hours,43.2 weight percentage
same,Gal4 in reaction products,[3]; incubation time 0.5 hours,42.9 weight percentage
same,Gal in reaction products,[3]; incubation time 0.5 hours,5.8 weight percentage
same,Gal2 in reaction products,[3]; incubation time 2.2 hours,21.9 weight percentage
same,Gal3 in reaction products,[3]; incubation time 2.2 hours,39.8 weight percentage
same,Gal4 in reaction products,[3]; incubation time 2.2 hours,21.6 weight percentage
same,Gal in reaction products,[3]; incubation time 2.2 hours,16.7 weight percentage
same,Gal2 in reaction products,[3]; incubation time 5.0 hours,34.8 weight percentage
same,Gal3 in reaction products,[3]; incubation time 5.0 hours,23.9 weight percentage
same,Gal4 in reaction products,[3]; incubation time 5.0 hours,5.7 weight percentage
same,Gal in reaction products,[3]; incubation time 5.0 hours,35.6 weight percentage
same,Gal2 in reaction products,[3]; incubation time 72.0 hours,33.6 weight percentage
same,Gal3 in reaction products,[3]; incubation time 72.0 hours,0.9 weight percentage
same,Gal4 in reaction products,[3]; incubation time 72.0 hours,0.2 weight percentage
same,Gal in reaction products,[3]; incubation time 72.0 hours,65.2 weight percentage
same,"Activity on Gal3, products",[4],degraded Gal3 to Gal2 and Gal
same,Gal2 in reaction products,[5]; incubation time 0.0 hours,0.0 weight percentage
same,Gal3 in reaction products,[5]; incubation time 0.0 hours,0.0 weight percentage
same,Gal in reaction products,[5]; incubation time 0.0 hours,0.0 weight percentage
same,MeGal2 in reaction products,[5]; incubation time 0.0 hours,0.0 weight percentage
same,MeGal3 in reaction products,[5]; incubation time 0.0 hours,100.0 weight percentage
same,MeGal in reaction products,[5]; incubation time 0.0 hours,0.0 weight percentage
same,Gal2 in reaction products,[5]; incubation time 0.5 hours,3.9 weight percentage
same,Gal3 in reaction products,[5]; incubation time 0.5 hours,1.2 weight percentage
same,Gal in reaction products,[5]; incubation time 0.5 hours,0.0 weight percentage
same,MeGal2 in reaction products,[5]; incubation time 0.5 hours,3.3 weight percentage
same,MeGal3 in reaction products,[5]; incubation time 0.5 hours,80.3 weight percentage
same,MeGal in reaction products,[5]; incubation time 0.5 hours,11.4 weight percentage
same,Gal2 in reaction products,[5]; incubation time 2.2 hours,12.5 weight percentage
same,Gal3 in reaction products,[5]; incubation time 2.2 hours,3.3 weight percentage
same,Gal in reaction products,[5]; incubation time 2.2 hours,2.3 weight percentage
same,MeGal2 in reaction products,[5]; incubation time 2.2 hours,3.7 weight percentage
same,MeGal3 in reaction products,[5]; incubation time 2.2 hours,59.7 weight percentage
same,MeGal in reaction products,[5]; incubation time 2.2 hours,18.4 weight percentage
same,Gal2 in reaction products,[5]; incubation time 5.0 hours,20.2 weight percentage
same,Gal3 in reaction products,[5]; incubation time 5.0 hours,10.6 weight percentage
same,Gal in reaction products,[5]; incubation time 5.0 hours,3.0 weight percentage
same,MeGal2 in reaction products,[5]; incubation time 5.0 hours,5.2 weight percentage
same,MeGal3 in reaction products,[5]; incubation time 5.0 hours,24.2 weight percentage
same,MeGal in reaction products,[5]; incubation time 5.0 hours,36.8 weight percentage
same,Gal2 in reaction products,[5]; incubation time 72.0 hours,36.2 weight percentage
same,Gal3 in reaction products,[5]; incubation time 72.0 hours,8.0 weight percentage
same,Gal in reaction products,[5]; incubation time 72.0 hours,17.1 weight percentage
same,MeGal2 in reaction products,[5]; incubation time 72.0 hours,4.2 weight percentage
same,MeGal3 in reaction products,[5]; incubation time 72.0 hours,0.0 weight percentage
same,MeGal in reaction products,[5]; incubation time 72.0 hours,34.6 weight percentage
same,Release of MeGal versus MeGal2 from MeGal3,[5]; in words,much higher release of MeGal than MeGal2
